For the assay, the target named is isochorismatase-like hydrolase Mh33H4-5540 from Microbacterium hydrocarbonoxydans (Microbacterium hydrocarbonoxydans). The assay can be described thus: SEC; gel filtration of purified MhIHL (Supplementary Fig. S1); conditions of this run not told in the main text.

For “isochorismatase-like hydrolase Mh33H4-5540 from Microbacterium hydrocarbonoxydans (enzyme)”, the stoichiometry N worked out at 2.

These data come from article PMC5353710, “Structural insights into the γ-lactamase activity and substrate enantioselectivity of an isochorismatase-like hydrolase from Microbacterium hydrocarbonoxydans” (Scientific Reports, 2017).
